Source: US20200270359A1 (Genmab, published 2020)

T1: human (Homo sapiens) CD37 (human (Homo sapiens), UniProt P11049 1-281)
T1 construct: Full-length protein on cells: endogenous on Daudi cells, Raji cells and B cells in human blood; also called Leukocyte Antigen CD37; GP52-40
T1 sequence: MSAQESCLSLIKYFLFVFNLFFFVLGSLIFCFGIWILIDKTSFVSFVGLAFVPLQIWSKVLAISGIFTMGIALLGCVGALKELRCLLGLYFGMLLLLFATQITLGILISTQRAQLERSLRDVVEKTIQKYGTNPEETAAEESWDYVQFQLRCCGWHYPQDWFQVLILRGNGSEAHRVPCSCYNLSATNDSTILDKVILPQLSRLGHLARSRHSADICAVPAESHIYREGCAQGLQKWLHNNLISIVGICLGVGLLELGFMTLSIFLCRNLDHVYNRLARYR

T2: cynomolgus monkey (Macaca fascicularis) CD37 (cynomolgus monkey (Macaca fascicularis), UniProt P11049 1-281 (human entry))
T2 construct: also called mfCD37; Cynomolgus CD37
T2 chain: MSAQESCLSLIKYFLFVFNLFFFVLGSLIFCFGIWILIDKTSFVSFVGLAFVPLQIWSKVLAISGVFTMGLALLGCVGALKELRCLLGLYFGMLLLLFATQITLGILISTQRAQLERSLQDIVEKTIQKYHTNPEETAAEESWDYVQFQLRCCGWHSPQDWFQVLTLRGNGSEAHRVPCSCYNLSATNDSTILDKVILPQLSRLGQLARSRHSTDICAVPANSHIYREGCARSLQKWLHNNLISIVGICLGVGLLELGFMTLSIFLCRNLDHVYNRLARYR


Legend:
[1] = target: T1, human (Homo sapiens) CD37; assay: flow cytometry on Daudi cells
Method: (§1) Binding to cell surface expressed CD37 (Daudi cells, CHO cells expressing cynomolgus CD37) was determined by flow cytometry. Cells, resuspended in RPMI containing 0.2% BSA, were seeded at 100,000 cells/well in polystyrene 96 well round-bottom plates (Greiner bio-one Cat #650101) and centrifuged for 3 minutes at 300×g, 4° C. Serial dilutions (0.003-10 μg/mL final antibody concentration in 3.33× serial dilutions) of CD37 or control antibodies were added and cells were incubated for 30 minutes at 4° C. Plates were washed/centrifuged twice using FACS buffer (PBS/0.1% BSA/0.01% Na-Azide). Next, cells were incubated for 30 minutes at 4° C. with R-Phycoerythrin (PE)-conjugated goat-anti-human IgG F(ab′)2 (Jackson ImmunoResearch Laboratories, Inc., West Grove, Pa.; cat #: 109-116-098) diluted 1/100 in PBS/0.1% BSA/0.01% Na-Azide. Cells were washed/centrifuged twice using FACS buffer, resuspended in 30 μL FACS buffer and analyzed by determining mean fluorescent intensities using an Intellicyt iQue™ screener (Westburg). Binding curves were generated using non-linear regression (sigmoidal dose-response with variable slope) analyses within GraphPad Prism V6.04 software (GraphPad Software, Sand Diego, Calif., USA).

[2] = target: T2, cynomolgus monkey (Macaca fascicularis) …; assay: flow cytometry on CHO cells expressing cynomolgus monkey CD37
Method: as §1
Binding to CHO cells expressing cynomolgus monkey CD37 was determined by flow cytometry using a method as described above.

[3] = target: T1, human (Homo sapiens) CD37; assay: flow cytometry, A488-labeled antibody on B cells in human whole blood; average of 6 donors
Method: (§2) Cells were pelleted and washed twice in 150 μL FACS buffer and resuspended in 150 μL TO-PRO-3 (end concentration 0.2 μM; Molecular Probes, cat no. T3605). Samples were measured by flow cytometry using an LSRFortessa flow cytometer. Binding is expressed as geometric mean of A488 fluorescence intensity for viable TO-PRO-3⁻/CD14⁻/CD19⁺ B-cells (human) or viable TO-PRO-3⁻/CD14⁻/CD19+/CD20+ B-cells (cynomolgus monkey). Log-transformed data were analyzed using best-fit values of a non-linear dose-response fit in GraphPad PRISM.

[4] = target: T2, cynomolgus monkey (Macaca fascicularis) …; assay: flow cytometry, A488-labeled antibody on B cells in cynomolgus monkey whole blood; average of 4 animals
Method: as §2

Row | Binder | binding result [1] | binding result [2] | EC50 [3] | EC50 [4]
1 | IgG1-004-H5L2 (antibody) heavy: not shown light: AQVLTQSPSPLSASVGDRVTITCQASQSVYNSQNLAWYQQKPGKAPKLLIYEASKLASGVPSRFKGSGSGTEFTLTISSLQPDDFATYYCQGEFSCISADCTAFGGGTKVEIKRTVAAPSVFIFPPSDEQLKSGTASVVCLLNNFYPREAKVQWKVDNALQSGNSQESVTEQDSKDSTYSLSSTLTLSKADYEKHKVYACEVTHQGLSSPVTKSFNRGEC | binds |  |  | 
2 | IgG1-004-H5L2-E430G (antibody, IgG1,kappa with E430G (EU numbering)) heavy: not shown light: AQVLTQSPSPLSASVGDRVTITCQASQSVYNSQNLAWYQQKPGKAPKLLIYEASKLASGVPSRFKGSGSGTEFTLTISSLQPDDFATYYCQGEFSCISADCTAFGGGTKVEIKRTVAAPSVFIFPPSDEQLKSGTASVVCLLNNFYPREAKVQWKVDNALQSGNSQESVTEQDSKDSTYSLSSTLTLSKADYEKHKVYACEVTHQGLSSPVTKSFNRGEC | binds | binds |  | 
3 | IgG1-G28.1 (antibody, IgG1,kappa) heavy: not shown light: DIQMTQSPASLSASVGETVTITCRTSENVYSYLAWYQQKQGKSPQLLVSFAKTLAEGVPSRFSGSGSGTQFSLKISSLQPEDSGSYFCQHHSDNPWTFGGGTELEIKRTVAAPSVFIFPPSDEQLKSGTASVVCLLNNFYPREAKVQWKVDNALQSGNSQESVTEQDSKDSTYSLSSTLTLSKADYEKHKVYACEVTHQGLSSPVTKSFNRGEC | binds | no binding (tested: 0.003-10 µg/mL) |  | 
4 | IgG1-G28.1-E430G (antibody, IgG1,kappa with E430G (EU numbering)) heavy: not shown light: DIQMTQSPASLSASVGETVTITCRTSENVYSYLAWYQQKQGKSPQLLVSFAKTLAEGVPSRFSGSGSGTQFSLKISSLQPEDSGSYFCQHHSDNPWTFGGGTELEIKRTVAAPSVFIFPPSDEQLKSGTASVVCLLNNFYPREAKVQWKVDNALQSGNSQESVTEQDSKDSTYSLSSTLTLSKADYEKHKVYACEVTHQGLSSPVTKSFNRGEC | binds | no binding (tested: 0.003-10 µg/mL) |  | 
5 | IgG1-010-H5L2 (antibody, Humanized, IgG1,kappa) heavy: not shown light: AYDMTQSPSTLSASVGDRVTITCQASQNIIDYLAWYQQKPGKAPKLLIHKASTLASGVPSRFKGSGSGTEFTLTISSLQPDDFATYYCQQGYSNSNIDNTFGGGTKVEIKRTVAAPSVFIFPPSDEQLKSGTASVVCLLNNFYPREAKVQWKVDNALQSGNSQESVTEQDSKDSTYSLSSTLTLSKADYEKHKVYACEVTHQGLSSPVTKSFNRGEC | binds |  |  | 
6 | IgG1-010-H5L2-E430G (antibody, IgG1,kappa with E430G (EU numbering)) heavy: not shown light: AYDMTQSPSTLSASVGDRVTITCQASQNIIDYLAWYQQKPGKAPKLLIHKASTLASGVPSRFKGSGSGTEFTLTISSLQPDDFATYYCQQGYSNSNIDNTFGGGTKVEIKRTVAAPSVFIFPPSDEQLKSGTASVVCLLNNFYPREAKVQWKVDNALQSGNSQESVTEQDSKDSTYSLSSTLTLSKADYEKHKVYACEVTHQGLSSPVTKSFNRGEC | binds | binds |  | 
7 | IgG1-005-H1L2-E430G (antibody, IgG1,kappa with E430G (EU numbering)) heavy: not shown light: AYDMTQSPSSVSASVGDRVTITCQASQSISNWLAWYQQKPGKAPKQLIYAASTLASGVPSRFKGSGSGTDFTLTISSLQPEDFATYYCQQGYSNSNIDNTFGGGTKVEIKRTVAAPSVFIFPPSDEQLKSGTASVVCLLNNFYPREAKVQWKVDNALQSGNSQESVTEQDSKDSTYSLSSTLTLSKADYEKHKVYACEVTHQGLSSPVTKSFNRGEC | binds | binds |  | 
8 | IgG1-005-H1L2 (antibody, Humanized, IgG1,kappa) heavy: not shown light: AYDMTQSPSSVSASVGDRVTITCQASQSISNWLAWYQQKPGKAPKQLIYAASTLASGVPSRFKGSGSGTDFTLTISSLQPEDFATYYCQQGYSNSNIDNTFGGGTKVEIKRTVAAPSVFIFPPSDEQLKSGTASVVCLLNNFYPREAKVQWKVDNALQSGNSQESVTEQDSKDSTYSLSSTLTLSKADYEKHKVYACEVTHQGLSSPVTKSFNRGEC | binds |  |  | 
9 | IgG1-016-H5L2-E430G (antibody, IgG1,kappa with E430G (EU numbering)) heavy: not shown light: DVVMTQSPSTLSASVGDRVTITCQASQNIDSNLAWYQQKPGKAPKFLIYYASNLPFGVPSRFKGSGSGTEFTLTISSLQPDDFATYYCQCADVGSTYVAAFGGGTKVEIKRTVAAPSVFIFPPSDEQLKSGTASVVCLLNNFYPREAKVQWKVDNALQSGNSQESVTEQDSKDSTYSLSSTLTLSKADYEKHKVYACEVTHQGLSSPVTKSFNRGEC | binds | binds |  | 
10 | bsIgG1-016-H5L2-LC90S-F405L-E430Gx010-H5L2-K409R-E430G (bispecific antibody) heavy 1: not shown light 1: DVVMTQSPSTLSASVGDRVTITCQASQNIDSNLAWYQQKPGKAPKFLIYYASNLPFGVPSRFKGSGSGTEFTLTISSLQPDDFATYYCQSADVGSTYVAAFGGGTKVEIKRTVAAPSVFIFPPSDEQLKSGTASVVCLLNNFYPREAKVQWKVDNALQSGNSQESVTEQDSKDSTYSLSSTLTLSKADYEKHKVYACEVTHQGLSSPVTKSFNRGEC heavy 2: not shown light 2: AYDMTQSPSTLSASVGDRVTITCQASQNIIDYLAWYQQKPGKAPKLLIHKASTLASGVPSRFKGSGSGTEFTLTISSLQPDDFATYYCQQGYSNSNIDNTFGGGTKVEIKRTVAAPSVFIFPPSDEQLKSGTASVVCLLNNFYPREAKVQWKVDNALQSGNSQESVTEQDSKDSTYSLSSTLTLSKADYEKHKVYACEVTHQGLSSPVTKSFNRGEC |  |  | 0.85 µg/mL | 0.63 µg/mL
11 | IgG1-016-H5L2-F405L-E430G (antibody, IgG1,kappa with F405L and E430G (EU numbering)) heavy: not shown light: DVVMTQSPSTLSASVGDRVTITCQASQNIDSNLAWYQQKPGKAPKFLIYYASNLPFGVPSRFKGSGSGTEFTLTISSLQPDDFATYYCQCADVGSTYVAAFGGGTKVEIKRTVAAPSVFIFPPSDEQLKSGTASVVCLLNNFYPREAKVQWKVDNALQSGNSQESVTEQDSKDSTYSLSSTLTLSKADYEKHKVYACEVTHQGLSSPVTKSFNRGEC | binds |  |  | 
12 | IgG1-016-H5L2 (antibody, Humanized, IgG1,kappa) heavy: not shown light: DVVMTQSPSTLSASVGDRVTITCQASQNIDSNLAWYQQKPGKAPKFLIYYASNLPFGVPSRFKGSGSGTEFTLTISSLQPDDFATYYCQCADVGSTYVAAFGGGTKVEIKRTVAAPSVFIFPPSDEQLKSGTASVVCLLNNFYPREAKVQWKVDNALQSGNSQESVTEQDSKDSTYSLSSTLTLSKADYEKHKVYACEVTHQGLSSPVTKSFNRGEC | binds |  |  | 
13 | IgG1-016-H5L2-LC90S-F405L-E430G (antibody, V domains shown, IgG1,kappa; light chain C90S, heavy chain F405L and E430G (EU numbering)) VH: EVQLVESGGGLVQPGGSLRLSCAASGFSLSNYNMGWVRQAPGKGLEWVSVIDASGTTYYATWAKGRFTISRDNSKNTLYLQMNSLRAEDTATYYCARELLYFGSSYYDLWGQGTLVTVSS VL: DVVMTQSPSTLSASVGDRVTITCQASQNIDSNLAWYQQKPGKAPKFLIYYASNLPFGVPSRFKGSGSGTEFTLTISSLQPDDFATYYCQSADVGSTYVAAFGGGTKVEIKR | binds |  |  | 
14 | IgG1-37.3 (antibody, IgG1,kappa) heavy: not shown light: DIQMTQSPASLSVSVGETVTITCRASENIRSNLAWYQQKQGKSPQLLVNVATNLADGVPSRFSGSGSGTQYSLKINSLQSEDFGTYYCQHYWGTTWTFGGGTKLEIKRTVAAPSVFIFPPSDEQLKSGTASVVCLLNNFYPREAKVQWKVDNALQSGNSQESVTEQDSKDSTYSLSSTLTLSKADYEKHKVYACEVTHQGLSSPVTKSFNRGEC | binds |  |  | 
15 | IgG1-37.3-E430G (antibody, IgG1,kappa with E430G (EU numbering)) heavy: not shown light: DIQMTQSPASLSVSVGETVTITCRASENIRSNLAWYQQKQGKSPQLLVNVATNLADGVPSRFSGSGSGTQYSLKINSLQSEDFGTYYCQHYWGTTWTFGGGTKLEIKRTVAAPSVFIFPPSDEQLKSGTASVVCLLNNFYPREAKVQWKVDNALQSGNSQESVTEQDSKDSTYSLSSTLTLSKADYEKHKVYACEVTHQGLSSPVTKSFNRGEC | binds |  |  | 
